Reference: PMC10065947 (Nature chemical biology, 2022)

Target: TAMRA-APP12 (peptide S1) (TAMRA label (position not given); C-terminal amide)
Experiment: fluorescence polarisation

B1: naïve fusion of WT Fyn-SH3 and WT COMT (enzyme)
chain: not shown
Kd: 330 nM
